Our source for the activity values is patent US20180002740.

In the data set the test system is VanR (phosphorylated) (Streptomyces coelicolor M600). Nature of the data set: cell_activity. As to conditions: indirect: growth arrest about 18 h with 20 ug/ml vancomycin; 64 pM little effect.

As to “ATATCTATATGAAGCGACGTGGTCGATGAGCCGCAGCGTTTTCGCTGCGGCTCATCGACCACGTCGCTTCATATAGATATAGTTTTCT [vanH5 dumbbell decoy]”, the activity stood at 256 pM.
